Columns and labels:
Assay in all cases: purified protein
purified protein [1] = substrate: C[C@@H](O)CC(=O)SCCNC(=O)CCNC(=O)[C@H](O)C(C)(C)COP(=O)(O)OP(=O)(O)OC[C@H]1O[C@@H](n2cnc3c(N)ncnc32)[C@H](O)[C@@H]1OP(=O)(O)O; settings: oxidative direction, 2 mM NADP+, pH 7 TRIS-HCl, 70°C
purified protein [2] = substrate: CC(=O)CC(=O)SCCNC(=O)CCNC(=O)[C@H](O)C(C)(C)COP(=O)(O)OP(=O)(O)OC[C@H]1O[C@@H](n2cnc3c(N)ncnc32)[C@H](O)[C@@H]1OP(=O)(O)O; settings: 0.2 mM NADPH, pH 7 TRIS-HCl, 35°C
purified protein [3] = substrate: NC(=O)C1=CN([C@@H]2O[C@H](COP(=O)(O)OP(=O)(O)OC[C@H]3O[C@@H](n4cnc5c(N)ncnc54)[C@H](OP(=O)(O)O)[C@@H]3O)[C@@H](O)[C@H]2O)C=CC1; settings: 0.3 mM AcAcCoA, pH 7 TRIS-HCl, 35°C, varied: cofactor

B1: ACR (Saci_1104) (Sulfolobus acidocaldarius DSM 639) (protein)
chain: MYSLKDKVVVVTGSGRGIGRAIALRLAQEGSKIVVNAKKRAEEVNETVEMVKKIGGDAVGVLADVGTKEGCETLLKSTLDKFGVVDILVNNAGLGLFSLFMNADDKLIEKHISVDFKSVVYCSQAFAREMREGGEIVNIASIAGVLPAYGLSMYGAMKGAVISLTKYMALELAPKIRVNAIAPGWVKTKLGESMYKLLNMSEKEFVEKTTLMGKMLEPEDIAEFVTAILKIEGLTGQVFVVDAGESIKRGIA
Km (purified protein [1]): 160 ± 12 µM | kcat (purified protein [1]): 0.435 s⁻¹ | Km (purified protein [2]): 77 ± 9 µM | kcat (purified protein [2]): 0.586 s⁻¹ | Km (purified protein [3]): 24 ± 3 µM

— paper doi:10.1101/2024.07.05.601840v1
